In US20250000989A1 (JIANGSU HENGRUI PHARMACEUTICALS, published 2025):

How the values were obtained:
HER3 = HER3 (UniProt P21860 20-1342, limits assumed); assay: cell-based or functional assay
human Claudin18.2 = human Claudin18.2 (human); assay: cell-based or functional assay

Binder | EC50 (nM), killing effect (CTG) on FaDu++ (HER3) [nM] | EC50 (nM), killing effect (CTG) on MCF7++++ (HER3) [nM] | EC50 (nM), killing effect (CTG) on SW620+++ (HER3) [nM] | EC50 (nM), in vitro killing (CTG cell viability) of cells highly expressing NUGC4-claudin18.2 (human Claudin18.2) [nM] | EC50 (nM), in vitro killing (CTG cell viability) of cells lowly expressing NUGC4-claudin18.2 (human Claudin18.2) [nM] | EC50 (nM), in vitro killing (CTG cell viability) of cells moderately expressing NUGC4-claudin18.2 (human Claudin18.2) [nM]
ADC-20 (antibody, human IgG1, kappa, V domains shown, Asn at position 297 (Eu numbering) carries the remodeled N297 glycan chain from OLS-4, conjugated to the PBD drug linker LD-11; average drug loading y=1.98) VH: QVQLVQSGGGLVQPGRSLRLSCAASGFTFDDYAMHWVRQAPGKGLEWVSGISWNSGSIGYADSVKGRFTISRDNAKNSLYLQMNSLRAEDTALYYCAKEGLPGLDYWGQGTLVTVSS VL: DIQMTQSPSSLSASIGDRATITCRASQHVGTYLNWYQQKPGKTPKLLISGAANLQSGVPSRFSGSGSGTDFTLTISSLQPEDFATYYCQQSYNTPPFSFGQGTKVEIKR | 39.9 | 114 | 29.3 |  |  | 
ADC-22 (antibody, human IgG1, kappa, V domains shown, Asn at position 297 (Eu numbering) carries the remodeled N297 glycan chain from OLS-4, conjugated to the PBD drug linker LD-11; average drug loading y=1.96) VH: EVQLVQSGAEVKKPGASVKVSCKASGYTFTSYWMHWVRQAPGQRLEWMGMIHPNSGSTNYNEKFKGRVTITRDTSASTAYMELSSLRSEDTAVYYCARLKTGNSFDYWGQGTTVTVSS VL: DIVLTQSPDSLAVSLGERATINCKSSQSLLNSGNQKNYLTWYQQKPGQPPKLLIYWASTRESGVPDRFSGSGSGTDFTLTISSLQAEDVAVYYCQNAYTYPFTFGQGTKLEIKR |  |  |  | 2.1 | 11.7 | 9.8
